Consider three molecules from PMC3735542, “Light Driven CO2 Fixation by Using Cyanobacterial Photosystem I and NADPH-Dependent Formate Dehydrogenase” (PLoS ONE, 2013).

Read-outs that look alike come from different tables or passages of the source.

Assay in all cases: purified protein
For data set [1], the system named is T1, NC(=O)c1ccc[n+]([C@@H]2O[C@H](COP(=O)(O)OP(=O)(O)OC[C@H]3O[C@@H](n4cnc5c(N)ncnc54)[C@H](O)[C@@H]3O)[C@@H](O)[C@H]2O)c1.
T1 construct: synthetic gene in pET22b (NdeI/NotI), C-terminal His tag kept, E. coli BL21(DE3), about 44 kDa
Type of data set: biochemical, Pseudomonas sp. 101. The settings on record: 500 mM formate, PBS, 0.05% Triton X-100.

The test system of data set [2] is T2, NC(=O)c1ccc[n+]([C@@H]2O[C@H](COP(=O)(O)OP(=O)(O)OC[C@H]3O[C@@H](n4cnc5c(N)ncnc54)[C@H](OP(=O)(O)O)[C@@H]3O)[C@@H](O)[C@H]2O)c1.
T2 construct: synthetic gene in pET22b (NdeI/NotI), C-terminal His tag kept, E. coli BL21(DE3), about 44 kDa
Format: biochemical, Pseudomonas sp. 101. The settings on record: 500 mM formate, PBS, 0.05% Triton X-100.

Substrate in data set [3]: O=CO
As to conditions: 2 mM NADP+, PBS, 0.05% Triton X-100; same doubt on QN or QH.

Substrate in data set [4]: NC(=O)c1ccc[n+]([C@@H]2O[C@H](COP(=O)(O)OP(=O)(O)OC[C@H]3O[C@@H](n4cnc5c(N)ncnc54)[C@H](OP(=O)(O)O)[C@@H]3O)[C@@H](O)[C@H]2O)c1
Format: biochemical, Arabidopsis thaliana.

Substrate in data set [5]: NC(=O)c1ccc[n+]([C@@H]2O[C@H](COP(=O)(O)OP(=O)(O)OC[C@H]3O[C@@H](n4cnc5c(N)ncnc54)[C@H](OP(=O)(O)O)[C@@H]3O)[C@@H](O)[C@H]2O)c1
Format: biochemical, Solanum tuberosum. As to conditions: 500 mM formate, PBS, 0.05% Triton X-100; positions 197/199 from methods and Table 1, b33 prints 195/197.

“Pseudomonas FDH (PsFDH) (Pseudomonas sp. 101; D222Q/H224N)”: in data set [1], the Km (commonly the concentration of substrate that gives half-maximal velocity) worked out at 1000 ± 600 µM and the Vmax (usually the rate approached at saturating substrate) was 0.55 µM/min. Besides, the Km in data set [2] came out at 350 ± 10 µM.

B1: Arabidopsis FDH (AtFDH) (Arabidopsis thaliana; D227Q/L229N) (protein)
chain: ASSGDSKKIVGVFYKANEYATKNPNFLGCVENALGIRDWLESQGHQYIVTDDKEGPDCELEKHIPDLHVLISTPFHPAYVTAERIKKAKNLKLLLTAGIGSDHIDLQAAAAAGLTVAEVTGSNVVSVAEDELMRILILMRNFVPGYNQVVKGEWNVAGIAYRAYDLEGKTIGTVGAGRIGKLLLQRLKPFGCNLLYHQRNQMAPELEKETGAKFVEDLNEMLPKCDVIVINMPLTEKTRGMFNKELIGKLKKGVLIVNNARGAIMERQAVVDAVESGHIGGYSGDVWDPQPAPKDHPWRYMPNQAMTPHTSGTTIDAQLRYAAGTKDMLERYFKGEDFPTENYIVKDGELAPQYR
notes: synthetic gene in pET22b (NdeI/NotI), C-terminal His tag kept, E. coli BL21(DE3); partly digested on purification; primer encodes CNLLYH-X-R-X-QMAPEL
Turning to B1, the Km came out at 96000 ± 14000 µM in the data set “purified protein [3]” and 910 ± 70 µM in “purified protein [4]”.

B2: potato FDH (PoFDH) (Solanum tuberosum; D224Q/L226H) (protein)
chain: LQASPGPKKIVGVFYKANEYAEMNPNFLGCAENALGIREWLESKGHQYIVTPDKEGPDCELEKHIPDLHVLISTPFHPAYVTAERIKKAKNLQLLLTAGIGSDHVDLKAAAAAGLTVAEVTGSNTVSVAEDELMRILILVRNFLPGHHQVINGEWNVAAIAHRAYDLEGKTVGTVGAGRIGRLLLQRLKPFNCNLLYHQRHKMDSELENQIGAKFEEDLDKMLSKCDIVVINTPLTEKTKGMFDKERIAKLKKGVLIVNNARGAIMDTQAVVDACNSGHIAGYSGDVWYPQPAPKDHPWRYMPNQAMTPHISGTTIDAQLRYAAGTKDMLDRYFKGEDFPAENYIVKDGELAPQYR
notes: synthetic gene in pET22b (NdeI/NotI), C-terminal His tag kept, E. coli BL21(DE3); primer encodes CNLLYH-X-R-X-KMDSEL
As to B2, the Km in “purified protein [5]” is 620 ± 50 µM.
